From US20210246451, “APTAMER FOR ADAMTS5 AND USE FOR APTAMER FOR ADAMTS5” (RIBOMIC INC., published 2021)

Key:
Settings in all cases: tags: R&D Systems
[1] = target: T1, ADAMTS5 (UniProt Q9UNA0 Q9UNA0:262-622); test: inhibition; 30 nM
T1 sequence: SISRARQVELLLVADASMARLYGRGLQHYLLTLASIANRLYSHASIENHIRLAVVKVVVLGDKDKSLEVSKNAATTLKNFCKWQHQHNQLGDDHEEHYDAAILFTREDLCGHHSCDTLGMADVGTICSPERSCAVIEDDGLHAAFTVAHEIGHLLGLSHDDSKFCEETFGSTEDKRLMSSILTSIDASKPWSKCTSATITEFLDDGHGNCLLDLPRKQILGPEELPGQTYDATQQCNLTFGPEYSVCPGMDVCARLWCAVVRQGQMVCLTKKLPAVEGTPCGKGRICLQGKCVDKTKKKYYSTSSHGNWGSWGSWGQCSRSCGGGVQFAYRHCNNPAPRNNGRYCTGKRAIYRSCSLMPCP
Method: (§1) Whether an aptamer having the nucleotide sequence shown in SEQ ID NO: 1 inhibits the enzyme activity of ADAMTS5 was evaluated by the following method. As a substrate of ADAMTS5, the G1-IGD-G2 domain of aggrecan (manufactured by R&D systems) was used. ADAMTS5 specifically cleaves in between the 392nd glutamic acid and the 393rd alanine in the G1-IGD-G2 domain and produces two fragments. These fragments have faster electrophoretic mobility than uncleaved G1-IGD-G2. Thus, the enzyme activity of ADAMTS5 can be measured by quantifying the band intensity of G1-IGD-G2 by SDS-PAGE electrophoresis. The assay was performed in a solution A buffer with a reaction mixture volume of 10 μL. First, a mixture (10 μL) of a nucleic acid and ADAMTS5 was prepared and incubated at 25° C. for 15 min. To a substrate solution (5 μL) diluted with solution A was added a mixture (5 μL) of the nucleic acid and ADAMTS5 to start the enzyme reaction. The final concentration of ADAMTS5 in the reaction solution was 5 nM, and the final substrate concentration was 50 μg/mL. The reaction solution was incubated at 37° C. for 2 hr, 2 μL of solution D was added, and the mixture was heated at 95° C. for 2 min to stop the enzyme reaction of ADAMTS5. Solution D contains 0.25 M tris (pH 6.8), 10% SDS, 50% glycerol, 0.25% bromo phenolblue, and 20% 2-mercaptoethanol. The heat-treated reaction solution was electrophoresed by 7.5% SDS-PAGE and stained with SYPRO Orange (manufactured by Sigma-Aldrich). The staining was performed according to the manual of Sigma-Aldrich and detected using STORM840 manufactured by GE Healthcare. […] The amount of uncleaved substrate in each reaction solution was quantified from the band intensity and the standard curve. The substrate cleavage efficiency of ADAMTS5 under these reaction conditions was 80-100%. The inhibition rate of the test substance was calculated using the following equation.
Whether these aptamers inhibit the enzyme activity of ADAMTS5 was tested by a method similar to that in Example 1. The final concentration of the nucleic acid was fixed to 30 nM in the test.

[2] = target: T1, ADAMTS5; test: inhibition; 10 nM aptamer
Method: as §1, with “The substrate cleavage efficiency of ADAMTS5 under these reaction conditions was 80-100%.” left out
The binding activity and enzyme inhibitory activity of aptamers having nucleotide sequences shown in SEQ ID NOs: 16-25 to ADAMTS5 were measured. The binding activity was evaluated by the surface plasmon resonance method. […]

[3] = target: T1, ADAMTS5; test: inhibition; 10 nM
Method: as §1
(§2) The nucleic acids shown in SEQ ID NOs: 3(1)-3(16) were all produced by chemical synthesis. Whether these nucleic acids inhibit the enzyme activity of ADAMTS5 was determined by a method similar to that in Example 1.

[4] = target: T1, ADAMTS5; test: inhibition; 30 nM; remark: listed apart in the source
Method: as §1, §2

[5] = target: T1, ADAMTS5; test: inhibition; 10 nM; remark: listed apart in the source
Method: as §1, with “The substrate cleavage efficiency of ADAMTS5 under these reaction conditions was 80-100%.” left out
The nucleic acids of SEQ ID NOs: 10-12 were all produced by chemical synthesis. Whether aptamers having the nucleotide sequences shown by these nucleic acids inhibit the enzyme activity of ADAMTS5 was determined by a method similar to that in Example 1.

[6] = target: T1, ADAMTS5; test: SPR; RU ratio <10%, same level as 40N; 300 mM NaCl, Ca, Mg
Method: The binding activity of aptamers having the nucleotide sequences shown in SEQ ID NOs: 1 and 2 to ADAMTS5 was evaluated by the surface plasmon resonance method. Biacore T100 manufactured by GE Healthcare was used for the measurement. The SA chip was used as the sensor chip, which had streptavidin immobilized thereon. About 800 RU of a 16-nucleotide Poly dT with biotin at the 5′-terminal was bound on the chip. […] ADAMTS5 for analyte was prepared at 0.1 μM, and injected at a flow rate so of 30 μL/min for 60 sec. As the running buffer, solution C was used. The solution C is a mixed solution of 300 mM sodium chloride, 5.4 mM potassium chloride, 1.8 mM calcium chloride, 0.8 mM magnesium chloride, 20 mM tris (pH 7.6), and 0.05% Tween20.
SEQ ID NO: 2 has a sequence with one base deletion from the continuous 4 G bases in the consensus sequence, and it was shown from the measurement results of the binding activity that the continuous 4 G bases in the consensus sequence are important for the activity of aptamers. Sensorgram showing the binding of an aptamer having the nucleotide sequence shown in SEQ ID NO: 1 to ADAMTS5 is presented in FIG. 2. […]

[7] = target: T1, ADAMTS5; test: inhibition; 10 nM aptamer, aggrecan G1-IGD-G2 cleavage, method 1
Method: as §1
The aptamers having the sequences shown in SEQ ID NOs: 10(1)-10(8) and 11(1)-11(35), SEQ ID NO: 13-15 were all produced by chemical synthesis.

B1: SEQ ID NO: 6 (ssRNA)
RNA: GGCUUGGGGCCUCCACAGCUGUCAGCUUGGACUAAACCAAGCC
modifications: 2'-F pyrimidines
- activity [1]: 33.7 % inhibition

B2: SEQ ID NO: 24 (ssRNA)
RNA: GGGACAUGCGUAACUUGAUAGGGGCCUCCACAGCCGGUAGGCUUGGACUCAAACCAUCAAGUCCAGAUCGAGCA
modifications: 2'-F at all pyrimidines
- activity [2]: 20.2 % inhibition

B3: SEQ ID NO: 4 (ssRNA)
RNA: GGCUUGGGGCCUCCACAGCUGCUCAGCUUGGACUAAACCAAGCC
modifications: 2'-F pyrimidines
- activity [1]: 23 % inhibition

B4: 3(11) (ssRNA)
RNA: GGAUUGGGGCCUCCACAGCUGCUCAGCUUGGACUAAACCAAUCC
modifications: 2'-OMe at 1-7,15,17-28,36,38-44; 2'-F other pyrimidines
- activity [3]: 48.1 % inhibition

B5: 3(9) (ssRNA)
RNA: GGAUUGGGGCCUCCACAGCUGCUCAGCUUGGACUAAACCAAUCC
modifications: 2'-OMe at 1-8,17-28,36,38-44; 2'-F other pyrimidines
- activity [3]: 25.8 % inhibition

B6: 3(14) (ssRNA)
RNA: GGAUUGGGGCCUCCACAGCUGCUCAGCUUGGACUAAACCAAUCC
modifications: 2'-OMe at 1-7,17-28,32,36,38-44; 2'-F other pyrimidines
- activity [3]: 1.2 % inhibition

B7: 3(4) (ssRNA)
RNA: GGAUUGGGGCCUCCACAGCUGCUCAGCUUGGACUAAACCAAUCC
modifications: 2'-OMe at A36; 2'-F pyrimidines
- activity [4]: 53.1 % inhibition

B8: 3(13) (ssRNA)
RNA: GGAUUGGGGCCUCCACAGCUGCUCAGCUUGGACUAAACCAAUCC
modifications: 2'-OMe at 1-7,17-28,31,36,38-44; 2'-F other pyrimidines
- activity [3]: 37 % inhibition

B9: 3(2) (ssRNA)
RNA: GGAUUGGGGCCUCCACAGCUGCUCAGCUUGGACUAAACCAAUCC
modifications: 2'-OMe at 4-6,39-41; 2'-F other pyrimidines
- activity [4]: 53.6 % inhibition

B10: 3(10) (ssRNA)
RNA: GGAUUGGGGCCUCCACAGCUGCUCAGCUUGGACUAAACCAAUCC
modifications: 2'-OMe at 1-7,9,17-28,36,38-44; 2'-F other pyrimidines
- activity [3]: 25.6 % inhibition

B11: 3(1) (ssRNA)
RNA: GGAUUGGGGCCUCCACAGCUGCUCAGCUUGGACUAAACCAAUCC
modifications: 2'-OMe at 1-3,42-44; 2'-F other pyrimidines
- activity [4]: 49.8 % inhibition

B12: 3(16) (ssRNA)
RNA: GGAUUGGGGCCUCCACAGCUGCUCAGCUUGGACUAAACCAAUCC
modifications: 2'-OMe at 1-7,17-28,36-44; 2'-F other pyrimidines
- activity [3]: 53.6 % inhibition

B13: 3(12) (ssRNA)
RNA: GGAUUGGGGCCUCCACAGCUGCUCAGCUUGGACUAAACCAAUCC
modifications: 2'-OMe at 1-7,17-28,30,36,38-44; 2'-F other pyrimidines
- activity [3]: 57.5 % inhibition

B14: 3(15) (ssRNA)
RNA: GGAUUGGGGCCUCCACAGCUGCUCAGCUUGGACUAAACCAAUCC
modifications: 2'-OMe at 1-7,17-28,35,36,38-44; 2'-F other pyrimidines
- activity [3]: 27.6 % inhibition

B15: 3(3) (ssRNA)
RNA: GGAUUGGGGCCUCCACAGCUGCUCAGCUUGGACUAAACCAAUCC
modifications: 2'-OMe at 18-20,25-27; 2'-F other pyrimidines
- activity [4]: 48.6 % inhibition

B16: SEQ ID NO: 10 (ssRNA)
RNA: AUUGGGGCCUCCACAGCUGCUCAGCUUGGACUAAACCAAU
modifications: 2'-OMe at 1-5,15-26,28,34-40; 2'-F other pyrimidines
- activity [5]: 65 % inhibition

B17: SEQ ID NO: 2 (ssRNA)
RNA: GGGUACGACCGUCGUACGAUUGGGCCUCCACAGCUGCUCAGCUUGGACUAAACCAAUAAGAGACUAACGCCUAGCGUAC
modifications: 2'-F pyrimidines; 3' A16 tail for SPR
- binding result [6]: no binding

B18: SEQ ID NO: 22 (ssRNA)
RNA: GGGACAUGCGUAACUGCAUAGGGGCCUCCACAGCUAUUCAGCUUGGACACAAACCAUGCAGUCCAGAUCGAGCA
modifications: 2'-F at all pyrimidines
- activity [2]: 14.8 % inhibition

B19: SEQ ID NO: 23 (ssRNA)
RNA: GGGACAUGCGUAACUGUAUAGGGGCCUCCACAGCUGAAAAGCUUGGACUCAAACCAUACAGUCCAGAUCGAGCA
modifications: 2'-F at all pyrimidines
- activity [2]: 14.5 % inhibition

B20: SEQ ID NO: 11 (ssRNA)
RNA: AUUGGGGCCUCCACAGCGCUCGCUUGGACUAAACCAAU
modifications: 2'-OMe at 1-5,15-24,26,32-38; 2'-F other pyrimidines
- activity [5]: 59.8 % inhibition

B21: 11(28) (ssRNA)
RNA: AUUGGGGCCUCCACAGCGCUCGCUUGGACUAAACCAAU
modifications: 2'-OMe at 1-5,15-26,32-38; 2'-F at 8-12,14,29,30; PS between 28 and 29
- activity [7]: 44.8 % inhibition

B22: 11(27) (ssRNA)
RNA: AUUGGGGCCUCCACAGCGCUCGCUUGGACUAAACCAAU
modifications: 2'-OMe at 1-5,15-26,32-38; 2'-F at 8-12,14,29,30; PS between 27 and 28
- activity [7]: 48.2 % inhibition

B23: 11(26) (ssRNA)
RNA: AUUGGGGCCUCCACAGCGCUCGCUUGGACUAAACCAAU
modifications: 2'-OMe at 1-5,15-26,32-38; 2'-F at 8-12,14,29,30; PS between 26 and 27
- activity [7]: 47.2 % inhibition

B24: 11(29) (ssRNA)
RNA: AUUGGGGCCUCCACAGCGCUCGCUUGGACUAAACCAAU
modifications: 2'-OMe at 1-5,15-26,32-38; 2'-F at 8-12,14,29,30; PS between 29 and 30
- activity [7]: 56.5 % inhibition

B25: 11(22) (ssRNA)
RNA: AUUGGGGCCUCCACAGCGCUCGCUUGGACUAAACCAAU
modifications: 2'-OMe at 1-5,15-26,32-38; 2'-F at 8-12,14,29,30; PS between 11 and 12
- activity [7]: 49.8 % inhibition

B26: 11(31) (ssRNA)
RNA: AUUGGGGCCUCCACAGCGCUCGCUUGGACUAAACCAAU
modifications: 2'-OMe at 1-5,15-26,32-38; 2'-F at 8-12,14,29,30; PS between 31 and 32
- activity [7]: 56.3 % inhibition

B27: 11(23) (ssRNA)
RNA: AUUGGGGCCUCCACAGCGCUCGCUUGGACUAAACCAAU
modifications: 2'-OMe at 1-5,15-26,32-38; 2'-F at 8-12,14,29,30; PS between 12 and 13
- activity [7]: 47.9 % inhibition

B28: 11(24) (ssRNA)
RNA: AUUGGGGCCUCCACAGCGCUCGCUUGGACUAAACCAAU
modifications: 2'-OMe at 1-5,15-26,32-38; 2'-F at 8-12,14,29,30; PS between 13 and 14
- activity [7]: 46.3 % inhibition

B29: SEQ ID NO: 5 (ssRNA)
RNA: GGCUUGGGGCCUCCACAGCGCUCGCUUGGACUAAACCAAGCC
modifications: 2'-F pyrimidines
- activity [1]: 27 % inhibition

B30: SEQ ID NO: 12 (ssRNA)
RNA: UUGGGGCCUCCACAGCGCUCGCUUGGACUAAACCAA
modifications: 2'-OMe at 1-4,14-23,25,31-36; 2'-F other pyrimidines
- activity [5]: 71.1 % inhibition

B31: SEQ ID NO: 9 (ssRNA)
RNA: GGAUUGGGGCCUCCACAGCGUCGCUUGGACUAAACCAAUCC
modifications: 2'-F pyrimidines
- activity [1]: 5.9 % inhibition
